Source: patent publication US9018138

Key:
[1] = target: integrins; test: cell-based or functional assay
[2] = target: coxsackievirus-adenovirus receptor (CAR) on 293, PC-3 and PC3-CAR cells (UniProt P78310); test: cell-based or functional assay

Substance | infection relative to wild type fiber virus [1] [%] | infection of 293 cells after anti-CAR siRNA knock-down (GFP) [2] [%] | infection of PC3-CAR against PC-3 cells (GFP fluorescence intensity, MOI 100) [2] [fold]
CAR ablated and RGD4C re-targeted Fiber (ΔTAYT-RGD), displayed on the capsid of virus AdTrack-RGD4C-2 (from UniProt P11818 1-542; P11818 543-581) | 5 | – | –
wild type Adenovirus Serotype 5 (Ad5) Fiber, displayed on the capsid of virus AdTrack-WTFib (from UniProt P11818 1-581) | – | > 50 | 26
